Measured values from publication PMC5159498, “IQGAP1 Interaction with RHO Family Proteins Revisited” (The Journal of Biological Chemistry, 2016).
Changes are numbered by the printed parent chain. Names and notes keep the numbering of the source. One block for each binder: values may come before it.

How the values were obtained:
[1] = target: the molecule itself; experiment: SEC; analytical SEC, Superdex 200 10/30, calibrated with standard proteins; 100 μM protein in 200 μl; 30 mM Tris/HCl pH 7.5, 150 mM NaCl, 5 mM MgCl2, 3 mM DTT; 0.5 ml/min
RAC1 (aa 1-179) [2] = target: T1, RAC1 (aa 1-179) (human, UniProt P63000 1-179); experiment: fluorescence polarisation; IQGAP1 variant titrated to mGppNHp-bound RHO protein (1 μM); equilibrium Kd (eKd), quadratic fit; 30 mM Tris/HCl pH 7.5, 150 mM NaCl, 5 mM MgCl2, 3 mM DTT, 25 °C; conditions: both partners purified
RAC1 (aa 1-179) [3] = target: T1, RAC1 (aa 1-179); experiment: stopped-flow fluorometry; mGppNHp-bound RHO protein (0.2 μM) rapidly mixed with IQGAP1 variant (2 μM, or 2-12 μM for kon); koff by displacement with 10 μM non-fluorescent GppNHp-bound GTPase; Kd = koff/kon; 30 mM Tris-HCl pH 7.5, 10 mM KH2PO4/K2HPO4, 5 mM MgCl2, 3 mM DTT; conditions: both partners purified

B1: IQGAP1 GRD2 (aa 962-1345) (domain or fragment, human, UniProt P46940 962-1345, looked up)
chain: SKEKREKLEAYQHLFYLLQTNPTYLAKLIFQMPQNKSTKFMDSVIFTLYNYASNQREEYLLLRLFKTALQEEIKSKVDQIQEIVTGNPTVIKMVVSFNRGARGQNALRQILAPVVKEIMDDKSLNIKTDPVDIYKSWVNQMESQTGEASKLPYDVTPEQALAHEEVKTRLDSSIRNMRAVTDKFLSAIVSSVDKIPYGMRFIAKVLKDSLHEKFPDAGEDELLKIIGNLLYYRYMNPAIVAPDAFDIIDLSAGGQLTTDQRRNLGSIAKMLQHAASNKMFLGDNAHLSIINEYLSQSYQKFRRFFQTACDVPELQDKFNVDEYSDLVTLTKPVIYISIGEIINTHTLLLDHQDAIAPEHNDPIHELLDDLGEVPTIESLIGESS
notes: human IQGAP1, GAP-related domain fragment GRD2, aa 962-1345, from the vector pMCSG7; source: E. coli (pLysS BL21(DE3), CodonPlusRIL or BL21(Rosetta)), purified (Ni-NTA, gel filtration)
stoichiometry N [1]: 2

B2: GST-fused IQGAP1 RGCT-CT (aa 1276-1657) (domain or fragment, human, UniProt P46940 1276-1657, looked up)
chain: QDKFNVDEYSDLVTLTKPVIYISIGEIINTHTLLLDHQDAIAPEHNDPIHELLDDLGEVPTIESLIGESSGNLNDPNKEALAKTEVSLTLTNKFDVPGDENAEMDARTILLNTKRLIVDVIRFQPGETLTEILETPATSEQEAEHQRAMQRRAIRDAKTPDKMKKSKSVKEDSNLTLQEKKEKIQTGLKKLTELGTVDPKNKYQELINDIARDIRNQRRYRQRRKAELVKLQQTYAALNSKATFYGEQVDYYKSYIKTCLDNLASKGKVSKKPREMKGKKSKKISLKYTAARLHEKGVLLEIEDLQVNQFKNVIFEISPTEEVGDFEVKAKFMGVQMETFMLHYQDLLQLQYEGVAVMKLFDRAKVNVNLLIFLLNKKFYGK
notes: human IQGAP1, RGCT and CT domains, aa 1276-1657; source: E. coli (pLysS BL21(DE3), CodonPlusRIL or BL21(Rosetta)), purified; not shown: GST, N-terminal, kept
binding result [1]: binds

Kd (RAC1 (aa 1-179) [2]): 5.53 µM
Kd (RAC1 (aa 1-179) [3]): 0.94 µM
B3: IQGAP1 GRD1-CT (aa 863-1657) (domain or fragment)
chain: DPPMVVVRKFVHLLDQSDQDFQEELDLMKMREEVITLIRSNQQLENDLNLMDIKIGLLVKNKITLQDVVSHSKKLTKKNKEQLSDMMMINKQKGGLKALSKEKREKLEAYQHLFYLLQTNPTYLAKLIFQMPQNKSTKFMDSVIFTLYNYASNQREEYLLLRLFKTALQEEIKSKVDQIQEIVTGNPTVIKMVVSFNRGARGQNALRQILAPVVKEIMDDKSLNIKTDPVDIYKSWVNQMESQTGEASKLPYDVTPEQALAHEEVKTRLDSSIRNMRAVTDKFLSAIVSSVDKIPYGMRFIAKVLKDSLHEKFPDAGEDELLKIIGNLLYYRYMNPAIVAPDAFDIIDLSAGGQLTTDQRRNLGSIAKMLQHAASNKMFLGDNAHLSIINEYLSQSYQKFRRFFQTACDVPELQDKFNVDEYSDLVTLTKPVIYISIGEIINTHTLLLDHQDAIAPEHNDPIHELLDDLGEVPTIESLIGESSGNLNDPNKEALAKTEVSLTLTNKFDVPGDENAEMDARTILLNTKRLIVDVIRFQPGETLTEILETPATSEQEAEHQRAMQRRAIRDAKTPDKMKKSKSVKEDSNLTLQEKKEKIQTGLKKLTELGTVDPKNKYQELINDIARDIRNQRRYRQRRKAELVKLQQTYAALNSKATFYGEQVDYYKSYIKTCLDNLASKGKVSKKPREMKGKKSKKISLKYTAARLHEKGVLLEIEDLQVNQFKNVIFEISPTEEVGDFEVKAKFMGVQMETFMLHYQDLLQLQYEGVAVMKLFDRAKVNVNLLIFLLNKKFYGK
notes: human IQGAP1, GRD, RGCT and CT domains, aa 863-1657; The GST tag was cleaved 'if needed'; also called C-terminal half of IQGAP1; C-terminal 795 amino acids of IQGAP1

Kd (RAC1 (aa 1-179) [2]): 4.6 µM
Kd (RAC1 (aa 1-179) [3]): 2.81 µM
B4: IQGAP1 GRD1-RGCT wild type (aa 877-1558) (domain or fragment, human, UniProt P46940 877-1558, looked up)
chain: DQSDQDFQEELDLMKMREEVITLIRSNQQLENDLNLMDIKIGLLVKNKITLQDVVSHSKKLTKKNKEQLSDMMMINKQKGGLKALSKEKREKLEAYQHLFYLLQTNPTYLAKLIFQMPQNKSTKFMDSVIFTLYNYASNQREEYLLLRLFKTALQEEIKSKVDQIQEIVTGNPTVIKMVVSFNRGARGQNALRQILAPVVKEIMDDKSLNIKTDPVDIYKSWVNQMESQTGEASKLPYDVTPEQALAHEEVKTRLDSSIRNMRAVTDKFLSAIVSSVDKIPYGMRFIAKVLKDSLHEKFPDAGEDELLKIIGNLLYYRYMNPAIVAPDAFDIIDLSAGGQLTTDQRRNLGSIAKMLQHAASNKMFLGDNAHLSIINEYLSQSYQKFRRFFQTACDVPELQDKFNVDEYSDLVTLTKPVIYISIGEIINTHTLLLDHQDAIAPEHNDPIHELLDDLGEVPTIESLIGESSGNLNDPNKEALAKTEVSLTLTNKFDVPGDENAEMDARTILLNTKRLIVDVIRFQPGETLTEILETPATSEQEAEHQRAMQRRAIRDAKTPDKMKKSKSVKEDSNLTLQEKKEKIQTGLKKLTELGTVDPKNKYQELINDIARDIRNQRRYRQRRKAELVKLQQTYAALNSKATFYGEQVDYYKSYIKTCLDNLASKGKVSKKPREMKGKKSKK
notes: human IQGAP1, GRD and RGCT domains, lacks the last 99 amino acids, aa 877-1558; also called GRD1-RGCT^WT; IQGAP1^877-1558
stoichiometry N [1]: 2

Kd (RAC1 (aa 1-179) [2]): 26.7 µM
Kd (RAC1 (aa 1-179) [3]): 6.26 µM
B5: IQGAP1 GRD1-RGCT S1443E (aa 877-1558) (domain or fragment)
chain: B4 chain with S567E
notes: human IQGAP1 aa 877-1558 with the phosphomimetic mutation S1443E (printed as S1143E in the methods, S1443E everywhere else), from the vector pET46 EkLIC; source: E. coli (pLysS BL21(DE3), CodonPlusRIL or BL21(Rosetta)), purified (Ni-NTA, gel filtration)

Kd (RAC1 (aa 1-179) [2]): 6.7 µM
Kd (RAC1 (aa 1-179) [3]): 3.21 µM
B6: IQGAP1 GRD1-RGCT S1441E (aa 877-1558) (domain or fragment)
chain: B4 chain with S565E
notes: human IQGAP1 aa 877-1558 with the phosphomimetic mutation S1441E, from the vector pET46 EkLIC; source: E. coli (pLysS BL21(DE3), CodonPlusRIL or BL21(Rosetta)), purified (Ni-NTA, gel filtration)

B7: IQGAP1 RGCT (aa 1276-1575) (domain or fragment, human, UniProt P46940 1276-1575, looked up)
chain: QDKFNVDEYSDLVTLTKPVIYISIGEIINTHTLLLDHQDAIAPEHNDPIHELLDDLGEVPTIESLIGESSGNLNDPNKEALAKTEVSLTLTNKFDVPGDENAEMDARTILLNTKRLIVDVIRFQPGETLTEILETPATSEQEAEHQRAMQRRAIRDAKTPDKMKKSKSVKEDSNLTLQEKKEKIQTGLKKLTELGTVDPKNKYQELINDIARDIRNQRRYRQRRKAELVKLQQTYAALNSKATFYGEQVDYYKSYIKTCLDNLASKGKVSKKPREMKGKKSKKISLKYTAARLHEKGVLL
notes: human IQGAP1, RASGAP C-terminal domain, aa 1276-1575; source: E. coli (pLysS BL21(DE3), CodonPlusRIL or BL21(Rosetta)), purified
binding result [1]: binds
